The target of the test is IL-1 receptors on MCF-7 cells. Briefly: cell-based or functional assay.

For “Interleukin 1 receptor antagonist (IL-1Ra) secreted by Pichia pastoris x-33/pGAPZαA/IL-1Ra clone 7, partially purified (from UniProt P18510 26-177) (ligand)”, the proliferation of MCF-7 cells (BrdU) in the presence of 50 ng IL-1beta worked out at 40 ng.

Consider “Recombinant human IL-1beta (from UniProt P01584 117-269) (ligand)”, for which the inhibition of proliferation of MCF-7 cells (BrdU) came to 50 ng.

As to “recombinant IL-1Ra standard from E. coli (Prospectany) (from UniProt P18510 26-177) (ligand)”, the proliferation of MCF-7 cells (BrdU) in the presence of 50 ng IL-1beta is 20 ng.
